Laboratory results reported in publication PMC10411744 (PLOS Pathogens, 2023).

B1: LAH31 with light chain position 92 reverted to germline (R92L) (antibody, V domains shown)
VH: QVQLEQSGAEVKKPGSSVKVSCKASGPMFSRSAFSWVRQAPGQGLEWMGRIIPTVDLKNYAQKFQGRVTFTADKSTATSYMELRSLKSEDTAVYYCARMGSGSSYYGMDVWGLGTTVTVSS
VL: DIVMTQSPLSLPVIPGEPASISCRSSQSLLQSNGNNYLDWYLQKPGQSPQLLIYLGSNRASGVPDRFSGSGSGTDFTLTISRVEAEDVGVYYCLQALQSSVLTFGGGTKLEIK
notes: IgG1
B2: LAH31 mouse IgG2c LALA mutant (antibody, V domains shown)
VH: QVQLEQSGAEVKKPGSSVKVSCKASGPMFSRSAFSWVRQAPGQGLEWMGRIIPTVDLKNYAQKFQGRVTFTADKSTATSYMELRSLKSEDTAVYYCARMGSGSSYYGMDVWGLGTTVTVSS
VL: DIVMTQSPLSLPVIPGEPASISCRSSQSLLQSNGNNYLDWYLQKPGQSPQLLIYLGSNRASGVPDRFSGSGSGTDFTLTISRVEAEDVGVYYCLQARQSSVLTFGGGTKLEIK
B3: LAH31 with light chain position 95 reverted to germline (Ser95 to Pro95) (antibody, V domains shown)
VH: QVQLEQSGAEVKKPGSSVKVSCKASGPMFSRSAFSWVRQAPGQGLEWMGRIIPTVDLKNYAQKFQGRVTFTADKSTATSYMELRSLKSEDTAVYYCARMGSGSSYYGMDVWGLGTTVTVSS
VL: DIVMTQSPLSLPVIPGEPASISCRSSQSLLQSNGNNYLDWYLQKPGQSPQLLIYLGSNRASGVPDRFSGSGSGTDFTLTISRVEAEDVGVYYCLQARQSPVLTFGGGTKLEIK
B4: LAH31 mouse IgG2c LALA-PG mutant (antibody, V domains shown)
VH: QVQLEQSGAEVKKPGSSVKVSCKASGPMFSRSAFSWVRQAPGQGLEWMGRIIPTVDLKNYAQKFQGRVTFTADKSTATSYMELRSLKSEDTAVYYCARMGSGSSYYGMDVWGLGTTVTVSS
VL: DIVMTQSPLSLPVIPGEPASISCRSSQSLLQSNGNNYLDWYLQKPGQSPQLLIYLGSNRASGVPDRFSGSGSGTDFTLTISRVEAEDVGVYYCLQARQSSVLTFGGGTKLEIK
B5: LAH31 with light chain position 94 reverted to germline (Ser94 to Thr94) (antibody, V domains shown)
VH: QVQLEQSGAEVKKPGSSVKVSCKASGPMFSRSAFSWVRQAPGQGLEWMGRIIPTVDLKNYAQKFQGRVTFTADKSTATSYMELRSLKSEDTAVYYCARMGSGSSYYGMDVWGLGTTVTVSS
VL: DIVMTQSPLSLPVIPGEPASISCRSSQSLLQSNGNNYLDWYLQKPGQSPQLLIYLGSNRASGVPDRFSGSGSGTDFTLTISRVEAEDVGVYYCLQARQTSVLTFGGGTKLEIK
B6: LAH31 mouse IgG2c KA mutant (antibody, V domains shown)
VH: QVQLEQSGAEVKKPGSSVKVSCKASGPMFSRSAFSWVRQAPGQGLEWMGRIIPTVDLKNYAQKFQGRVTFTADKSTATSYMELRSLKSEDTAVYYCARMGSGSSYYGMDVWGLGTTVTVSS
VL: DIVMTQSPLSLPVIPGEPASISCRSSQSLLQSNGNNYLDWYLQKPGQSPQLLIYLGSNRASGVPDRFSGSGSGTDFTLTISRVEAEDVGVYYCLQARQSSVLTFGGGTKLEIK

What was measured:
[1] = molecular target: X31 (H3N2) trimeric full-length HA (prefusion stabilized HA) (influenza A virus X31 (H3N2), biotin (biotinylated for capture on streptavidin)); assay: ELISA; conditions: both partners purified
HA of H1 A/Narita/1/2009 = HA of H1 A/Narita/1/2009 (influenza A virus A/Narita/1/2009 (H1)); assay: ELISA; conditions: both partners purified

Binder	binding result [1]	binding result (HA of H1 A/Narita/1/2009)
B1	binds	–
B2	binds	–
B3	binds	binds
B4	binds	–
B5	binds	binds
B6	binds	–
